B1: Disrupted in schizophrenia 1 homolog (Mus musculus), Q811T9 (parent)
chain: MQGGGPRGAPIHSPSHGADSGHGLPPAVAPQRRRLTRRPGYMRSTAGSGIGFLSPAVGMPHPSSAGLTGQQSQHSQSKAGQCGLDPGSHCQASLVGKPFLKSSLVPAVASEGHLHPAQRSMRKRPVHFAVHSKNDSRQSERLTGSFKPGDSGFWQELLSSDSFKSLAPSLDAPWNKGSRGLKTVKPLASPALNGPADIASLPGFQDTFTSSFSFIQLSLGAAGERGEAEGCLPSREAEPLHQRPQEMAAEASSSDRPHGDPRHLWTFSLHAAPGLADLAQVTRSSSRQSECGTVSSSSSDTGFSSQDASSAGGRGDQGGGWADAHGWHTLLREWEPMLQDYLLSNRRQLEVTSLILKLQKCQEKVVEDGDYDTAETLRQRLEELEQEKGRLSWALPSQQPALRSFLGYLAAQIQVALHGATQRAGSDDPEAPLEGQLRTTAQDSLPASITRRDWLIREKQRLQKEIEALQARMSALEAKEKRLSQELEEQEVLLRWPGCDLMALVAQMSPGQLQEVSKALGETLTSANQAPFQVEPPETLRSLRERTKSLNLAVRELTAQVCSGEKLCSSLRRRLSDLDTRLPALLEAKMLALSGSCFSTAKELTEEIWALSSEREGLEMFLGRLLALSSRNSRRLGIVKEDHLRCRQDLALQDAAHKTRMKANTVKCMEVLEGQLSSCRCPLLGRVWKADLETCQLLMQSLQLQEAGSSPHAEDEEQVHSTGEAAQTAALAVPRTPHPEEEKSPLQVLQEWDTHSALSPHCAAGPWKEDSHIVSAEVGEKCEAIGVKLLHLEDQLLGAMYSHDEALFQSLQGELQTVKETLQAMILQLQPTKEAGEASASYPTAGAQETEA
B2: Disrupted in schizophrenia 1 protein (Homo sapiens), Q9NRI5 (parent)
chain: MPGGGPQGAPAAAGGGGVSHRAGSRDCLPPAACFRRRRLARRPGYMRSSTGPGIGFLSPAVGTLFRFPGGVSGEESHHSESRARQCGLDSRGLLVRSPVSKSAAAPTVTSVRGTSAHFGIQLRGGTRLPDRLSWPCGPGSAGWQQEFAAMDSSETLDASWEAACSDGARRVRAAGSLPSAELSSNSCSPGCGPEVPPTPPGSHSAFTSSFSFIRLSLGSAGERGEAEGCPPSREAESHCQSPQEMGAKAASLDGPHEDPRCLSRPFSLLATRVSADLAQAARNSSRPERDMHSLPDMDPGSSSSLDPSLAGCGGDGSSGSGDAHSWDTLLRKWEPVLRDCLLRNRRQMEVISLRLKLQKLQEDAVENDDYDKAETLQQRLEDLEQEKISLHFQLPSRQPALSSFLGHLAAQVQAALRRGATQQASGDDTHTPLRMEPRLLEPTAQDSLHVSITRRDWLLQEKQQLQKEIEALQARMFVLEAKDQQLRREIEEQEQQLQWQGCDLTPLVGQLSLGQLQEVSKALQDTLASAGQIPFHAEPPETIRSLQERIKSLNLSLKEITTKVCMSEKFCSTLRKKVNDIETQLPALLEAKMHAISGNHFWTAKDLTEEIRSLTSEREGLEGLLSKLLVLSSRNVKKLGSVKEDYNRLRREVEHQETAYETSVKENTMKYMETLKNKLCSCKCPLLGKVWEADLEACRLLIQSLQLQEARGSLSVEDERQMDDLEGAAPPIPPRLHSEDKRKTPLKVLEEWKTHLIPSLHCAGGEQKEESYILSAELGEKCEDIGKKLLYLEDQLHTAIHSHDEDLIQSLRRELQMVKETLQAMILQLQPAKEAGEREAAASCMTAGVHEAQA

The variants in one experiment derive from B1. As to conditions: with drd2_human DRD2, P14416.
drd2_human DRD2, P14416, sequence (P14416 whole entry): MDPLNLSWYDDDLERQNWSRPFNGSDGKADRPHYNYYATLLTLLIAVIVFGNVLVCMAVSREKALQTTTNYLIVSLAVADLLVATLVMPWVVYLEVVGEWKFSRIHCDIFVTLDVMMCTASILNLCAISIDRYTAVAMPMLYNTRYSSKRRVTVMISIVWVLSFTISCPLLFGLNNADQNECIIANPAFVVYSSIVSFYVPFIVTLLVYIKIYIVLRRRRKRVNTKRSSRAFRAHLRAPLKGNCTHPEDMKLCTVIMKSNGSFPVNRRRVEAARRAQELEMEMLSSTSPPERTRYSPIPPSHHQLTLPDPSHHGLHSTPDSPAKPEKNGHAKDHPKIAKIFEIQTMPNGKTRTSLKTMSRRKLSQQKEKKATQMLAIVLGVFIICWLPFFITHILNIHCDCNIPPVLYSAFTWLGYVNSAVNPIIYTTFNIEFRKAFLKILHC
As to L100P, the “effect of a mutation on the interaction” value is given as “increasing interaction”.

The variants in a further experiment derive from B1. Particulars: with drd2_mouse Drd2, P61168.
drd2_mouse Drd2, P61168, sequence (P61168 whole entry): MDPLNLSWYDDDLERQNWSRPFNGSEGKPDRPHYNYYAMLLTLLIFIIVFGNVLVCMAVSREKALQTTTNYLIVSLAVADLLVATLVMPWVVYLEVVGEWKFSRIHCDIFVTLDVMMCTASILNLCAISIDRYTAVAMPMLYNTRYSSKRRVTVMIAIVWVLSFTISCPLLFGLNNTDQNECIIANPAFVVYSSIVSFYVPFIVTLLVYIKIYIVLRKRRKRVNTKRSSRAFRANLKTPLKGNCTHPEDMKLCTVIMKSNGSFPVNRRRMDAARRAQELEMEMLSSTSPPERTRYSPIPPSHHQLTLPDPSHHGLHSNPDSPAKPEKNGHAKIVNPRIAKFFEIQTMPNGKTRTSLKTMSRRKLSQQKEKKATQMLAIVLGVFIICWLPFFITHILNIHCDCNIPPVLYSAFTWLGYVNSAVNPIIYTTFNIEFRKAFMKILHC
Regarding L100P, the “effect of a mutation on the interaction” value is “increasing interaction”.

The next experiment covers variants of B2. Particulars: with drd2_human DRD2, P14416.
For the variant R264Q, the “effect of a mutation on the interaction” value was “increasing interaction”.

Variants of B2 are the subject of the next experiment. As to conditions: with drd2_human DRD2, P14416. This is another data set of the same source.
For A83V, the “effect of a mutation on the interaction” value is recorded as “decreasing interaction”.

These data come from IntAct's records for PubMed 32493513.
